# Test results: patent US7482016B2, “Immunogenic compositions comprising HIV-1 acetylated Tat polypeptides” (The J. David Gladstone Institutes, priority 2003, dated 2009)
# How the values were obtained:
# [1] = tested on: p300-dependent transcription of MyoD RNA; details: microinjected into nuclei of oocytes; cited from earlier work
# [2] = tested on: TAR-mutant LTR-luciferase, RSV LTR-luciferase, 5×UAS/Gal4-VP16, CMV-GFP, LTR alone in HeLa cells; experiment: Microinjection control experiments with Tat-independent reporters; type: cell-based
# Protocol: Microinjection was performed at room temperature with a Zeiss automated injection system (Carl Zeiss, Oberkochen, Germany). Samples were prepared as a 20111 injection mix containing the luciferase reporter constructs (100 ng/ml) and CMV-GFP (50 ng/ml) constructs in sterile water or phosphate buffer. In individual experiments α-AcARM or preimmune immunoglobulins (5 mg/ml), Lys-CoA (8 μM) or synthetic Tat (30 μg/ml) were included in the mix. Four hours after injection, cells were examined on a Zeiss Axiovert microscope to determine the number of GFP-positive cells, washed in cold phosphate buffer and stored at −70° C. for luciferase assays (Promega).
# A GFP-expressing construct (CMV-GFP) was coinjected to count the number of injected cells before analysis of luciferase activity.
# [3] = tested on: Tat transactivation of the HIV LTR in HeLa-Tat cells; experiment: Nuclear microinjection of HIV LTR-luciferase reporter, Tat transactivation; type: cell-based; details: 8 μM solution microinjected into HeLa-Tat cells, three independent experiments
# Protocol: Microinjection experiments were previously described (Dorr et al. (2002), supra). Microinjection was performed at room temperature with a Zeiss automated injection system (Carl Zeiss, Oberkochen, Germany). Samples were prepared as a […] injection mix containing the luciferase reporter constructs (100 ng/ml) and CMV-GFP (50 ng/ml) constructs in sterile water or phosphate buffer. In individual experiments α-AcARM or preimmune immunoglobulins (5 mg/ml), Lys-CoA (8 μM) or synthetic Tat (30 μg/ml) were included in the mix. Four hours after injection, cells were examined on a Zeiss Axiovert microscope to determine the number of GFP-positive cells, washed in cold phosphate buffer and stored at −70° C. for luciferase assays (Promega). The α-p24 monoclonal antibody (183-H12-5C) was used in control microinjections with α-AcARM mAbs and was obtained through the AIDS Research and Reference Reagent Program, NIH (Chesebro et al. (1992) J Virol 66, 6547-6554). […]
# FIGS. 3A-D. (FIG. 3A) Microinjection of the p300-HAT inhibitor Lys-CoA (8 μM), HIV LTR-luciferase and CMV-GFP into HeLa or HeLa-Tat cells. Each value is expressed as a percentage of the value obtained in control cells, injected with LTR-luciferase and CMV-GFP alone. […]
# [4] = tested on: Jurkat T cells expressing FLAG-tagged Tat from the HIV LTR; experiment: Western blot of lysates of Jurkat T cells expressing FLAG-tagged Tat after TSA; type: cell-based; details: 400 nM TSA, 16 hours
# Protocol: Immunoglobulin G were purified on Gammabind Plus Sepharose (Amersham).
# Next, cellular extracts were analyzed with anti-AcARM antibodies. A cell line was generated that constitutively expressed a FLAG-tagged Tat protein from the HIV LTR by transducing Jurkat T cells with a Tat-encoding lentiviral vector (Jordan et al., 2001, supra). Following treatment with trichostatin A (TSA), a specific inhibitor of cellular HDACs, AcTat was detected by western blot analysis with anti-AcARM mAbs in cells expressing Tat, but not in control cells expressing GFP (FIG. 1D). To enhance the signal, immunoprecipitation was performed with anti-FLAG monoclonal antibodies before western blot analysis. Again, AcTat was detected in Tat-expressing, but not in GFP control cells (FIG. 1E). Expression of AcTat was enhanced when cells were treated with TSA.
# GST-CyclinT1 [5] = target: T1, GST-CyclinT1 (Homo sapiens, UniProt O60563, C261A); experiment: GST binding (pulldown) assay
# T1 construct: Full-length GST-CyclinT1, GST-CyclinT1C261A or GST alone were expressed in the BL21 strain of Escherichia coli; made in house; host or cells: Escherichia coli BL21
# T1 sequence (O60563 whole entry C261A): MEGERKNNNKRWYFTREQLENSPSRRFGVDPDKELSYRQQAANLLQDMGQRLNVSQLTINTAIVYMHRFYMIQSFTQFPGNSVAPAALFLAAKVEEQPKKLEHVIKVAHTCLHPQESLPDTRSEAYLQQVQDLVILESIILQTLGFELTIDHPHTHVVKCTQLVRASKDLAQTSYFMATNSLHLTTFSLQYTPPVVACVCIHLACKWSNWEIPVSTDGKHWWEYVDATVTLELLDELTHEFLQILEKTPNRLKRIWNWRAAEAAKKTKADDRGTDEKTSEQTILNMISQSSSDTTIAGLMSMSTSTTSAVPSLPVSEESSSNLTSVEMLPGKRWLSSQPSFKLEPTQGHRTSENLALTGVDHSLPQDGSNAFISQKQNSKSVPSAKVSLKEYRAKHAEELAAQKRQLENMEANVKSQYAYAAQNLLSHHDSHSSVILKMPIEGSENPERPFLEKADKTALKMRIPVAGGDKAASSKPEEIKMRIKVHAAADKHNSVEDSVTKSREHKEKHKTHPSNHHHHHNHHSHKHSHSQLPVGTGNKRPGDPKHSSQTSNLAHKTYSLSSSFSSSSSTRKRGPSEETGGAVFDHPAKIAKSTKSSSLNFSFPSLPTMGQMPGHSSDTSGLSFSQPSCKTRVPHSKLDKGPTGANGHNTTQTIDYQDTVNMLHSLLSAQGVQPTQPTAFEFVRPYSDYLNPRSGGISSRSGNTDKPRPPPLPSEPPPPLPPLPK
# Protocol: (§1) Full-length GST-CyclinT1, GST-CyclinT1C261A or GST alone were expressed in the BL21 strain of Escherichia coli and purified on glutathione-Sepharose beads (Amersham Pharmacia Biotech) as described (Herrmann and Rice (1993) Virology 197, 601-608). For binding assays ˜1 μg of bead-coupled GST-CyclinT1, GST-CyclinT1C261A or GST alone was incubated with Tat and AcTat in 100 μl modified Buffer C for 3.5 hr at 4°. Buffer C is described in (Fujinaga et al. (1999) Proc. Natl. Acad. Sci. USA 96, 1285-1290) and was used without ZnCl2 and SDS. Beads were washed three times with modified Buffer C containing 1M KCl, boiled in Laemmli buffer and supernatant was analyzed by immunoblotting using monoclonal anti-Tat antibodies (clone AC11.AE12; CPR Inc.).
# (§2) FIGS. 4A-D. (FIG. 4A) Bulge-dependent binding of Tat to TAR. Radiolabeled riboprobes corresponding to the HIV TAR element or a mutated form (TARΔBulge) were incubated with 0, 40, 80 and 160 ng of Tat and analyzed on a 4% Tris-glycine gel. (FIG. 4B) High-affinity binding of AcTat to TAR RNA, but […]. The wild-type TAR probe was incubated with increasing amounts of synthetic Tat or AcTat (0, 1.6 ng, 8 ng, 40 ng, and 200 ng) in the absence or presence of recombinant CyclinT1. The same experiment with a mutated TAR RNA probe containing mutations in the apical loop is shown below (TARΔLoop). (FIG. 4C) Binding of AcTat to CyclinT1 in the absence of TAR. Increasing amounts (0, 0.5 μg, 1 μg, and 2 μg) of Tat or AcTat were incubated with GST-CyclinT1, Tat-binding-deficient GST-CyclinT1 (C261A) or GST alone. Bound proteins were analyzed with monoclonal anti-Tat antibodies, directed against the N-terminus of Tat. 50% of input Tat proteins are shown. (FIG. 4D) Binding of Tat and AcTat to RNAPII. Biotinylated Tat or AcTat proteins (0, 1, 2, 4, 8 μg) were incubated with nuclear extracts, precipitated with streptavidin-sepharose and analyzed with modification-specific antibodies directed against the CTD of RNAPII. AcTat was detected with monoclonal anti-AcARM antibodies. Both Tat proteins reacted with horseradish peroxidase-conjugated streptavidin (SA-HRP).
# GST-CyclinT1 [6] = target: T2, GST-CyclinT1 (Homo sapiens, UniProt O60563); experiment: GST binding (pulldown) assay; details: absence of TAR
# T2 construct: Full-length GST-CyclinT1, GST-CyclinT1C261A or GST alone were expressed in the BL21 strain of Escherichia coli; made in house; host or cells: Escherichia coli BL21
# T2 sequence (O60563 whole entry): as the sequence (O60563 whole entry C261A) above, with A261C counted along it
# Protocol: as §1, §2
# HIV TAR RNA = experiment: RNA gel mobility shift assay; type: binding; details: for effect of mutations in the loop of TAR on binding: TARΔLoop probe; for binding to wild-type TAR RNA: absence of CyclinT1; for effect of addition of CyclinT1 on affinity for wild-type TAR RNA: recombinant CyclinT1 present
# Protocol: (§3) TAR RNAs were synthesized from HindIII-linearized pGEM3Zf-TAR constructs, which contained an oligonucleotide corresponding to the HIVLAI TAR sequence (nucleotides +17 to +44) ligated into the EcoR1-HindIII cloning sites, downstream of the T7 RNA polymerase start site. In the TARΔbulge construct, thymidine 23 was replaced with an adenosine, and the TARΔloop construct contained C30→A, T31→G, and G33→T mutation. In vitro transcription reactions were performed with the Riboprobe system (Promega, Madison, Wis.) with 1 μg of linearized plasmids and 50 μCi of ^32P-CTP (20 μCi/μl; Amersham Pharmacia Biotech). Transcripts were treated with 2 U DNAse I (Promega), extracted with a phenol:chloroform mixture, and purified over a Nick column (Amersham Pharmacia Biotech). Gel mobility reactions (final volume, 16 μl) were carried out at 30° C. as described (Wei et al. (1998) Cell 92, 451-462) with 2×10^4 cpm TAR probes/reaction with indicated concentrations of Tat proteins and 160 ng of GST-cleaved CyclinT1 (amino acids 1-303) (Garber et al. (1998) Curr Opin Immunol 11, 460-465). RNA-binding complexes were separated on a pre-run 4% Tris-glycine gel.
# as §2
# RNAPII = target: T3, RNAPII (Homo sapiens, UniProt P24928); experiment: RNA polymerase II binding in 293 nuclear extracts; details: biotinylated proteins
# T3 construct: analyzed with modification-specific antibodies directed against the CTD of RNAPII; endogenous in cells; host or cells: 293 nuclear extract
# Protocol: Synthetic biotinylated nonacetylated and acetylated Tat proteins were incubated for 2 hours with 50 μl 293 nuclear extracts prepared according to (Dignam et al. (1983) Methods Enzymol. 101, 582-598) in buffer conditions described in (Mavankal et al., (1996) Proc. Natl. Acad. Sci. USA 93, 2089-2094). Complexes were collected with streptavidin-sepharose beads, separated by SDS-PAGE electrophoresis and analyzed with α-RNAPII antibodies (clones H14 and 8WG16; CPR Inc) or with α-AcARM mAbs and HRP-conjugated Streptavidin (Jackson Immunoresearch Laboratories).
# as §2
# Tat/TAR/CyclinT1 complex = target: T4, Tat/TAR/CyclinT1 complex (Homo sapiens, UniProt O60563); experiment: RNA gel shift with recombinant CyclinT1, ternary complex formation; type: binding; details: presence of CyclinT1
# T4 construct: 160 ng of GST-cleaved CyclinT1 (amino acids 1-303); GST (N, cleaved yes); made in house
# T4 sequence (O60563 1-303, one chain of several): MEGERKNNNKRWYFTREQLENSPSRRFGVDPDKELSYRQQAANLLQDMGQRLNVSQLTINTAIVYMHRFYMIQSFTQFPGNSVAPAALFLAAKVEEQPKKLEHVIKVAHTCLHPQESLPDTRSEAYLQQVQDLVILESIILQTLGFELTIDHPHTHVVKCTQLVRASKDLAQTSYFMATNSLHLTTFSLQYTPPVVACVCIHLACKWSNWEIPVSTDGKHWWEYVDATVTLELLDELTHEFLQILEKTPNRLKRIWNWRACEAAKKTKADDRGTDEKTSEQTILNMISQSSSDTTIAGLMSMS
# Protocol: as §3, with “Gel mobility reactions (final volume, 16 μl) were carried out at 30° C. as described (Wei et al. (1998) Cell 92, 451-462) with 2×10^4 cpm TAR probes/reaction with indicated concentrations of Tat proteins and 160 ng of GST-cleaved CyclinT1 (amino acids 1-303) (Garber et al. (1998) Curr Opin Immunol 11, 460-465). RNA-binding complexes were separated on a pre-run 4% Tris-glycine gel.” left out
# FIGS. 4A-D. (FIG. 4A) Bulge-dependent binding of Tat to TAR. Radiolabeled riboprobes corresponding to the HIV TAR element or a mutated form (TARΔBulge) were incubated with 0, 40, 80 and 160 ng of Tat and analyzed on a 4% Tris-glycine gel. […] Bound proteins were analyzed with monoclonal anti-Tat antibodies, directed against the N-terminus of Tat. […] Biotinylated Tat or AcTat proteins (0, 1, 2, 4, 8 μg) were incubated with nuclear extracts, precipitated with streptavidin-sepharose and analyzed with modification-specific antibodies directed against the CTD of RNAPII. AcTat was detected with monoclonal anti-AcARM antibodies. […]
Molecule,p300-dependent transcription of MyoD RNA [1],effect on the LTR alone ([2]; coinjected into HeLa cells (no Tat)),effect on coinjected CMV-GFP reporter ([2]; same concentration (8 μM)),inhibition of Tat activity on the HIV LTR [3],Tat expression (anti-FLAG immunodetection) [4],"expression of AcTat ([4]; anti-FLAG immunoprecipitation, anti-AcARM blot)",binding to mutant CyclinT1 (C261A) or GST alone (GST-CyclinT1 [5]),binding to wild-type GST-CyclinT1 (GST-CyclinT1 [6]),binding to bulge-mutant TAR RNA (HIV TAR RNA; TARΔBulge probe),effect of mutations in the loop of TAR on binding (HIV TAR RNA),binding to wild-type TAR RNA (HIV TAR RNA),effect of addition of CyclinT1 on affinity for wild-type TAR RNA (HIV TAR RNA),binding to nonphosphorylated RNAPII (RNAPII),formation of the Tat/TAR/CyclinT1 ternary complex (Tat/TAR/CyclinT1 complex),"concentration at which retarded bands form, relative to unacetylated Tat (HIV TAR RNA; wild-type TAR probe)",interaction with hyperphosphorylated RNAPII complex (RNAPII)
CC(=O)N[C@@H](CCCCNC(=O)CSCCNC(=O)CCNC(=O)[C@H](O)C(C)(C)COP(=O)(O)OP(=O)(O)OC[C@H]1O[C@@H](n2cnc3c(N)ncnc32)[C@H](O)[C@@H]1OP(=O)(O)O)C(N)=O [Lys-CoA],efficiently blocked,no effect,no effect,60-70%,–,–,–,–,–,–,–,–,–,–,–,–
"CC(/C=C/C(=O)NO)=C\[C@@H](C)C(=O)c1ccc(N(C)C)cc1 [TSA, trichostatin A]",–,–,–,–,overall upregulation,enhanced,–,–,–,–,–,–,–,–,–,–
"Tat: synthetic unacetylated 72-amino acid Tat, sequence derived from isolate HIV-1BRU (peptide) MEPVDPRLEPWKHPGSQPKTACTTCYCKKCCFHCQVCFTTKALGISYGRKKRRQRRRPPQGSQTHQVSLSKQ",–,–,–,–,–,–,Neither Tat nor AcTat bound,equal affinities,blocked,little effect,high affinity,did not alter,no binding,formed the expected Tat/TAR/CyclinT1 complex,–,–
"AcTat: synthetic Tat protein (HIV-1BRU sequence, 72 amino acids) containing a single acetylated lysine at position 50 (peptide) MEPVDPRLEPWKHPGSQPKTACTTCYCKKCCFHCQVCFTTKALGISYGRKKRRQRRRPPQGSQTHQVSLSKQ",–,–,–,–,–,–,Neither Tat nor AcTat bound,equal affinities,–,little effect,affinities equal to that of unacetylated Tat,did not alter,no binding,could not,one-third,higher affinity than Tat
